{"source": "paper doi:10.1101/721969", "target": "Ib-pore (heptameric translocation channel of Clostridium perfringens iota toxin component Ib, after (Clostridium perfringens))", "test": "cryo-EM structure", "data": [{"substance": "Ib-pore (heptameric translocation channel of Clostridium perfringens iota toxin component Ib, after (natural protein)", "values": [{"measurement": "stoichiometry N", "value": 7}]}]}
